Consider 53 sequences from the supplement of paper PMC10567573.

± gives the standard deviation.

The series is described as follows: protein stability index of a GFP-peptide fusion (GPS, HEK-293T) (PSI 1-6); higher = more stable.
Setting [1] is: treatment: DMSO, c terminus: a fixed tail appended.
Where [2] appears, read: treatment: MLN4924 1 uM, 8 h, c terminus: a fixed tail appended.
The mark [3] stands for this setting: treatment: DMSO, c terminus: native.
Where [4] appears, read: treatment: MLN4924 1 uM, 8 h, c terminus: native.
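Further: 24-mer peptide tiles fused after GFP, lentivirally expressed, FACS-sorted into six equal bins by GFP/DsRed ratio, decoded by Illumina sequencing, PSI is the read-weighted mean bin number.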

With SMVVPLLSLHVKSLGASPTVAGIV [MFSD9], the protein stability index runs as follows: under setting [1], 2.95 ± 0.36; under setting [2], 2.4 ± 0.46.
The matching figures for SNKKRPSLDGRDPGNGTHGLSPEE [ELOA2]: 5.36 ± 0.27 and 5.33 ± 0.23.
The matching figures for SPLGALQHGFFRRTADEATNTGPA [DYRK1B]: 4.38 ± 0.16 and 4.57 ± 0.053.
The matching figures for SQSPSVSQLSVLSLSGVMLTDVSP [PRAME]: 3 ± 0.49 and 3 ± 0.33.
As to SQVCRVAYEIMQTLHPDASANFHS [FUT8], the protein stability index came out at 2.34 ± 0.36 under setting [1] and 2.27 ± 0.42 under setting [2].
The sequence SRVTAFLDDLSQKLKPLGEAEREF [NLN] showed a protein stability index under setting [1] of 2.84 ± 0.07 and a protein stability index under setting [2] of 3.12 ± 0.51.
The matching figures for SRYLGDSGLDDFFLDIDTSAVEKE [SERTAD3]: 5.31 ± 0.12 and 4.9 ± 0.55.
The matching figures for SSAGSAEQTAPGDSTGYMEVSLDS [EHMT1]: 5.29 ± 0.35 and 5.33 ± 0.12.
The matching figures for SSAPRDVQARMLSSTTILVQWKEP [PTPRD]: 2.83 ± 0.47 and 2.79 ± 0.15.
For the sequence SSCSSTSGGGGGGGGGGGGGKSGG [CCDC6], the protein stability index runs as follows: under setting [1], 5.17 ± 0.065; under setting [2], 5 ± 0.51.
On to SSFQDLLGDALAGPPRAPGRSGWP [HES6], for which the protein stability index by setting is: under setting [1], 3.13 ± 0.12; under setting [2], 3.11 ± 0.18.
For SSIECYDPIIDSWEVVTSMGTQRC [KLHL12] the same measures were 2.95 ± 0.2 and 3.24 ± 0.49.
The matching figures for SSKLVTKKAPQPAKPRLAERMTTR [HDAC6]: 4.32 ± 0.14 and 4.47 ± 0.38.
For SSLCYKQRIKSQERETEATRGRGG [MOG] the same measures were 5 ± 0.27 and 5.06 ± 0.32.
Consider SSSSECLEDSTMGSVADTVARVLR [PLK2], for which the protein stability index is 4.08 ± 0.22 under setting [1] and 4.03 ± 0.34 under setting [2].
The matching figures for SSYPVCVSKVVKGGSSGKGTTLRG [OAS1]: 4.11 ± 0.39 and 4.18 ± 0.19.
On to STIVVMLTKLREMGREKCHQYWPA [PTPRD], for which the protein stability index came out at 2.55 ± 0.22 under setting [1] and 2.63 ± 0.44 under setting [2].
The matching figures for STMSLNIITVTLNMEKYNFLGISI [DVL3]: 3.3 ± 0.42 and 2.89 ± 0.33.
Regarding STTNSTAAKPAASITSKPATLTTT [ZNF207], the protein stability index reads like this: under setting [1], 4.39 ± 0.25; under setting [2], 4.41 ± 0.081.
The matching figures for STVGKLCRLINEDVNEQVMQVLGP [CEP70]: 3.08 ± 0.19 and 3.2 ± 0.25.
SVFLLTLSIAFICCAQVKVSHLL [PHTF1]: the protein stability index is, setting by setting: under setting [3], 3.3 ± 0.35; under setting [4], 3.23 ± 0.53.
Consider SVLKRPERSQEESPPGSTKRRKSM [CDC25A], for which the protein stability index runs as follows: under setting [1], 5.29 ± 0.29; under setting [2], 5.5 ± 0.2.
For SVMVMREILDYIFSGQIRLNEDTI [GAN] the same measures were 2.53 ± 0.51 and 2.32 ± 0.64.
On to SVSCCHGNTLLAVRSVTDEPVPP [NEK8], for which the protein stability index is, setting by setting: under setting [3], 3.38 ± 0.17; under setting [4], 3.48 ± 0.077.
SVSREARQTVPPLTVRLHTQSVSE [PWWP2B]: the protein stability index reads like this: under setting [1], 4.29 ± 0.23; under setting [2], 4.42 ± 0.28.
In the case of SVSWWGLSPALDLQAESPPVDPDS [DNAAF3], the protein stability index is 4.85 ± 0.12 under setting [1] and 4.944 ± 0.047 under setting [2].
Regarding SVVLRRARGGAVSARYVLPDEAAR [DUSP5], the protein stability index amounted to 3.56 ± 0.33 under setting [1] and 3.55 ± 0.26 under setting [2].
In the case of TACSLPLCACLLGQKMLRHCGRT [PXN], the protein stability index came out at 3.03 ± 0.76 under setting [3] and 2.28 ± 0.4 under setting [4].
In the case of TALGDKKSLEGDLEDLKDQIAQLE [LMNB1], the protein stability index by setting is: under setting [1], 5.21 ± 0.24; under setting [2], 5.27 ± 0.24.
The matching figures for TAPRQEKHERTHEIIPINVNNNYE [SPRY1]: 4.68 ± 0.15 and 4.61 ± 0.38.
For TATDGGSPPLSTEAHFMLQVADIN [PCDHGA10] the same measures were 4.18 ± 0.089 and 4.19 ± 0.16.
The matching figures for TCAPSVSYFKCVQKEVLPSMRKIV [CCND1]: 2.33 ± 0.13 and 2.35 ± 0.33.
For the sequence TCLMISCYKGHKEIAQYLLEKGAD [FEM1C], the protein stability index is 2.29 ± 0.39 under setting [1] and 2.05 ± 0.27 under setting [2].
For TDAGKAFCMFYAVLGIPLTLVMFQ [KCNK9] the same measures were 3.35 ± 0.4 and 3.06 ± 0.31.
In the case of TEKDLLEDGFGEHPFYHCLVAEVP [SAT1], the protein stability index by setting is: under setting [1], 3.35 ± 0.32; under setting [2], 3.41 ± 0.37.
As to TEQGFGEDLEDLGAVAPPVSGDLT [NFE2L1], the protein stability index reads like this: under setting [1], 5.388 ± 0.027; under setting [2], 5.26 ± 0.55.
For TFAGDTCQVALNFANEEEAKKFRK [WASL] the same measures were 4.75 ± 0.12 and 4.73 ± 0.32.
For TGPPCDRQWTVSDWGPCSGSCGQG [ADAMTSL2] the same measures were 3.67 ± 0.45 and 3.51 ± 0.24.
For TGPQLPESLEDVAMYISQEEWGHQ [ZNF263] the same measures were 4.67 ± 0.1 and 4.52 ± 0.29.
Take TGSTYNLSSGMAVAGMPTAYDLSS [CARM1]: the protein stability index worked out at 3.27 ± 0.21 under setting [1] and 3.42 ± 0.44 under setting [2].
For TICYCPEKGTWTELEGDVAEPLAG [KLHL14] the same measures were 4.39 ± 0.18 and 4.59 ± 0.26.
Consider TIGFGDYVALQTKGALQKKPLYVA [KCNK9], for which the protein stability index was 2.29 ± 0.19 under setting [1] and 2.63 ± 0.28 under setting [2].
The matching figures for TIKHPGGAGAEESELQAYIAQCQD [MCOLN1]: 5.27 ± 0.2 and 5.23 ± 0.31.
For TILLDGQRVKLKLWDTSGQGRFCT [RAB40A] the same measures were 2.21 ± 0.13 and 2.21 ± 0.23.
The matching figures for TKKLRLTKPSKSAALHIDLCKATS [INTS4]: 2.91 ± 0.17 and 3.13 ± 0.22.
TKPKTTAIQGISEKEKAEIEAKEA [DLC1]: the protein stability index runs as follows: under setting [1], 5.56 ± 0.25; under setting [2], 5.35 ± 0.35.
For TLASVPPAATFGADDLVLTLSNPQ [ELF3] the same measures were 4.28 ± 0.21 and 4.25 ± 0.2.
For TLGASSLREERGHPLHPRHRKAVH [C6orf223] the same measures were 4.54 ± 0.25 and 4.5 ± 0.098.
For TLLLELEQDSGVQVEGLTVQYLGQ [ADAMTS4], the protein stability index stood at 2.87 ± 0.72 under setting [1] and 3.23 ± 0.38 under setting [2].
The matching figures for TLLVCGKKAYDYFQAKKIPIVSSL [PDZK1]: 2.6 ± 0.75 and 2.58 ± 0.13.
The matching figures for TLNVDRKEKCVSLPDCCHGSELRD [DLC1]: 4.15 ± 0.1 and 4.26 ± 0.15.
For TLPVLEASSWKKQVSHDFLETRFK [FBXO34] the same measures were 3.16 ± 0.66 and 3.1 ± 0.41.
TPAKSLDKFIEDYLLPDTCFRMQI [OAS1]: the protein stability index is, setting by setting: under setting [1], 2.51 ± 0.51; under setting [2], 2.65 ± 0.48.
